Publication PMC2903434

Molecular target: PAK1 kinase domain (K298R mutant), residues 250-545 from PAK-fl (UniProt Q13153)

Kd: 4 µM
Substance: truncated autoinhibitory domain (trunc-AID, residues 83-137) from PAK1 (from UniProt Q13153 83-137) (domain or fragment)
